Results: paper PMC6609445

Target: purified NTRI ectodomain (FLAG-NTRI, Fc removed) (human) (UniProt Q9P121)
Experiment: AUC

With “purified NTRI ectodomain (FLAG-NTRI, Fc removed) (from UniProt Q9P121 34-321) (domain or fragment)” as the substance, how does the Kd read?
The Kd was 0.11 µM.

What about the percent dimer at 2.0 uM of the same substance?
Its percent dimer at 2.0 uM is 50%.

And the percent dimer at 10 uM?
Its percent dimer at 10 uM is 87%.

And the stoichiometry N?
Its stoichiometry N is 2.
